Laboratory results published in patent US20200255508A1 (AbbVie / Abbott, published 2020).
Where a chain is given by its changes, count along the chain named. Read-outs that look alike come from different tables or passages of the source. Values belong to the binder of their own block, whether it stands above or below them.

What was measured:
[1] = target: T1, human DLL4 extracellular domain (human, UniProt Q9NR61 27-529); assay: Biacore SPR
T1 construct: extracellular domain; coated on plates in the sVEGFR1 assay; also called huDLL4 ECD; Human DLL4 ECD
Method: (§1) Binding of DLL4 antibodies to a purified recombinant DLL4 extracellular domain is determined by surface plasmon resonance-based measurements with a Biacore® instrument (either a Biacore 2000, Biacore 3000, or Biacore T100, GE Healthcare, Piscataway, N.J. US) using running buffer HBS-EPB (10 mM HEPES [pH 7.4], 150 mM NaCl, 3 mM EDTA, 0.1 mg/ml BSA and 0.005% surfactant P20) at 25° C. For example, approximately 9000 RU of goat anti-human Fc specific polyclonal antibody (Thermo Fisher Scientific Inc., Rockford, Ill., US) diluted in 10 mM sodium acetate (pH 4.5) is directly immobilized across a CM5 research grade biosensor chip using a standard amine coupling kit according to manufacturer's instructions and procedures at 25 μg/ml. Unreacted moieties on the biosensor surface are blocked with ethanolamine. For kinetic analysis, rate equations derived from the 1:1 Langmuir binding model are fitted simultaneously to multiple antigen injections (using global fit analysis) with the use of Scrubber 2 (BioLogic Software). […] The equilibrium dissociation constant KD (M) of the reaction between antibodies and the target antigen is then calculated from the kinetic rate constants by the following formula: KD=Koff/Kₒₙ. Binding is recorded as a function of time and kinetic rate constants are calculated. In this assay, on-rates as fast as 10⁶ M⁻¹s⁻¹ and off-rates as slow as 10⁻⁶ s⁻¹ can be measured.

[2] = target: T2, mouse DLL4 extracellular domain (mouse, UniProt Q9JI71 27-532); assay: Biacore SPR
T2 construct: extracellular domain; also called muDLL4 ECD; Mouse DLL4 ECD
Method: as §1

[3] = target: T3, rat DLL4 extracellular domain (rat, UniProt D3ZHH1 28-530); assay: Biacore SPR
T3 construct: extracellular domain; also called ratDLL4 ECD
Method: as §1

[4] = target: T1, human DLL4 extracellular domain; assay: capture ELISA
Method: (§2) ELISA plates were washed 3 times with wash buffer (PBS, 0.05% Tween-20) and then blocked with 200 ml/well blocking buffer (D-PBS, 1% BSA, 1 mM CaCl₂, 0.05% Tween-20) for 1 hour at 25° C. Plates were washed 3 times and incubated with 100 μl/well DLL4 antibodies (0.0001-100 nM, 10-fold serial dilution in blocking buffer) for 1 hour at 25° C., and then washed again 3 times. […] The reaction was stopped after 2 minutes at 25° C. with 100 μl/well 2 N H2SO₄ and the absorbance was read at 450 nm. Data were analyzed using Graphpad Prism software and EC₅₀ values were reported.

[5] = target: T4, human DLL4 on the cell surface (human, UniProt Q9NR61 27-685); assay: FACS on DLL4 cells
T4 construct: whole, on cells; also called HEK293-hDLL4; hDLL4-293G
Method: (§3) Stable cell lines overexpressing cell-surface DLL4 were harvested from tissue culture flasks, washed four times and resuspended in phosphate buffered saline (PBS) containing 1% bovine serum albumin and 1 mM CaCl₂ (FACS buffer), 1.5×10³ cells were incubated with antibodies at various concentrations in FACS buffer for 60 minutes on ice. Cells were washed twice and 50 μL of R-phycoerythrin-conjugated anti-rat IgG. […] Following an incubation on ice (4° C., 60 minutes), cells were washed three times and resuspended in FACS buffer. Fluorescence was measured using a Becton Dickinson FACSCalibur-HTS (Becton Dickinson, San Jose. Calif., US). Data were analyzed using Graphpad Prism software and EC₅₀ values were reported as the concentration of antibody to achieve 50% of maximal DLL4 antibodies binding to DLL4 expressing cells.

[6] = target: T1, human DLL4 extracellular domain; assay: cell-based or functional assay
[7] = target: T4, human DLL4 on the cell surface; assay: cell-based or functional assay
[8] = target: T4, human DLL4 on the cell surface; assay: competition FACS, competitor huNotch-1
Method: (§4) Notch blocking assay: Briefly, stable cell lines overexpressing cell-surface DLL4 were harvested from tissue culture flasks and re-suspended in phosphate buffered saline (PBS) containing 1% bovine serum albumin and 1 mM CaCl₂ (FACS buffer). HEK293-hDLL4 or HEK293-mDLL4 cells were dispensed into 96-well plate (v-bottom) at 1.5×10⁵ cells/well in FACS buffer. […] After washing the cells two times with FACS buffer, 50 μL of R-phycoerythrin-conjugated streptavidin (1:150 dilution in FACS buffer) (Jackson ImmunoResearch, West Grove, Pa., US, catalog no. 016-110-084) were added. Following an incubation on ice (4° C., 60 minutes), cells were washed three times and resuspended in FACS buffer. Fluorescence was measured using a Becton Dickinson FACSCalibur-HTS (Becton Dickinson, San Jose. Calif.).

[9] = target: T1, human DLL4 extracellular domain; assay: competition ELISA, competitor huNotch-1
Method: (§5) Plates were then washed 3 times with wash buffer (PBS, 0.05% Tween-20) and blocked with 200 μl/well blocking buffer (D-PBS, 1% BSA, 1 mM CaCl₂, 0.05% Tween-20) for 1 hour at 25° C. […] Assay plates were washed after blocking, and incubated with DLL4/antibody mixtures (100 μl/well, 1 hour at 25° C. with shaking). […] After a final wash, plates were developed using 100 μl/well substrate (TMB Sigma # T8665), and the reaction was stopped after an 8-minute incubation at 25° C. (for muDLL4 ELISA) and after 20 minute incubation at 25° C. (for huDLL4 ELISA) using 100 μl/well 1N HCl, and the absorbance was read at 450 nm.

[10] = target: T2, mouse DLL4 extracellular domain; assay: capture ELISA
Method: as §2

[11] = target: T5, mouse DLL4 on the cell surface (mouse, UniProt Q9JI71 27-686); assay: FACS on DLL4 cells
T5 construct: whole, on cells; also called HEK293-mDLL4; mDLL4-293G
Method: as §3

[12] = target: T2, mouse DLL4 extracellular domain; assay: cell-based or functional assay
[13] = target: T5, mouse DLL4 on the cell surface; assay: competition FACS, competitor huNotch-1
Method: as §4

[14] = target: T2, mouse DLL4 extracellular domain; assay: competition ELISA, competitor huNotch-1
Method: as §5

[15] = target: T1, human DLL4 extracellular domain; assay: Biacore SPR; remark: listed apart in the source
Method: (§6) The BIACORE® surface plasmon resonance assay (Biacore, Inc., Piscataway, N.J., US) determines the affinity of antibodies with kinetic measurements of on-rate and off-rate constants. Binding of DLL4 antibodies to a purified recombinant DLL4 extracellular domain is determined by surface plasmon resonance-based measurements with a Biacore® instrument (either a Biacore 2000, Biacore 3000, or Biacore T100, GE Healthcare, Piscataway, N.J. US) using running buffer HBS-EPB (10 mM HEPES [pH 7.4], 150 mM NaCl, 3 mM EDTA, 0.1 mg/ml BSA and 0.005% surfactant P20) at 25° C. For example, approximately 9000 RU of goat anti-human Fc specific polyclonal antibody (Thermo Fisher Scientific Inc., Rockford, Ill., US) diluted in 10 mM sodium acetate (pH 4.5) is directly immobilized across a CM5 research grade biosensor chip using a standard amine coupling kit according to manufacturer's instructions and procedures at 25 μg/ml. Unreacted moieties on the biosensor surface are blocked with ethanolamine. For kinetic analysis, rate equations derived from the 1:1 Langmuir binding model are fitted simultaneously to multiple antigen injections (using global fit analysis) with the use of Scrubber 2 (BioLogic Software). […] The equilibrium dissociation constant KD (M) of the reaction between antibodies and the target antigen is then calculated from the kinetic rate constants by the following formula: KD=Koff/Kₒₙ. Binding is recorded as a function of time and kinetic rate constants are calculated. In this assay, on-rates as fast as 10⁶ M⁻¹s⁻¹ and off-rates as slow as 10⁻⁶ s⁻¹ can be measured.

[16] = target: T2, mouse DLL4 extracellular domain; assay: Biacore SPR; remark: listed apart in the source
Method: as §6

[17] = target: T1, human DLL4 extracellular domain; assay: Biacore SPR; remark: listed apart in the source
Method: as §6

[18] = target: T2, mouse DLL4 extracellular domain; assay: Biacore SPR; remark: listed apart in the source
Method: as §6

[19] = target: T6, human DLL4-his (human, UniProt Q9NR61 27-529); assay: ELISA on DLL4-his
T6 construct: extracellular domain
Method: (§7) After the final wash, plates were incubated with 100 μl/well ELISA substrate (Sigma # T8665). The reaction was stopped after 8 minutes at 25° C. with 100 μl/well 1N HCl and the absorbance was read at 450 nm. Data were analyzed using Graphpad Prism software and EC50 values were reported.

[20] = target: T7, mouse DLL4-his (mouse, UniProt Q9JI71 27-532); assay: ELISA on DLL4-his
T7 construct: extracellular domain; not shown: his tag

[21] = target: T6, human DLL4-his; assay: ELISA on DLL4-his; remark: listed apart in the source
Method: as §7

[22] = target: T7, mouse DLL4-his; assay: ELISA on DLL4-his; remark: listed apart in the source
Method: as §7

[23] = target: T4, human DLL4 on the cell surface; assay: FACS on DLL4 cells; remark: listed apart in the source
Method: as §3

[24] = target: T4, human DLL4 on the cell surface; assay: FACS on DLL4 cells; remark: listed apart in the source
Method: as §3

[25] = target: T5, mouse DLL4 on the cell surface; assay: FACS on DLL4 cells; remark: listed apart in the source
Method: as §3

[26] = target: T5, mouse DLL4 on the cell surface; assay: FACS on DLL4 cells (*historic data)
[27] = target: T4, human DLL4 on the cell surface; assay: competition FACS, competitor huNotch-1; remark: listed apart in the source
Method: as §4

[28] = target: T5, mouse DLL4 on the cell surface; assay: competition FACS, competitor huNotch-1; remark: listed apart in the source
Method: as §4

[29] = target: T4, human DLL4 on the cell surface; assay: competition FACS, competitor huNotch-1; remark: listed apart in the source
Method: as §4

[30] = target: T5, mouse DLL4 on the cell surface; assay: competition FACS, competitor huNotch-1; remark: listed apart in the source
Method: as §4

[31] = target: T1, human DLL4 extracellular domain; assay: competition ELISA, competitor huNotch-1; remark: listed apart in the source
Method: as §5

[32] = target: T2, mouse DLL4 extracellular domain; assay: competition ELISA, competitor huNotch-1; remark: listed apart in the source
Method: as §5

[33] = target: T1, human DLL4 extracellular domain; assay: competition ELISA, competitor huNotch-1; remark: listed apart in the source
Method: as §5

[34] = target: T2, mouse DLL4 extracellular domain; assay: competition ELISA, competitor huNotch-1; remark: listed apart in the source
Method: as §5

[35] = target: T1, human DLL4 extracellular domain; assay: Biacore SPR; remark: listed apart in the source
Method: as §1

[36] = target: T1, human DLL4 extracellular domain; assay: capture ELISA; remark: listed apart in the source
Method: as §2

[37] = target: T2, mouse DLL4 extracellular domain; assay: capture ELISA; remark: listed apart in the source
Method: as §2

[38] = target: T4, human DLL4 on the cell surface; assay: FACS on DLL4 cells; remark: listed apart in the source
[39] = target: T5, mouse DLL4 on the cell surface; assay: FACS on DLL4 cells; remark: listed apart in the source
[40] = target: T4, human DLL4 on the cell surface; assay: cell-based or functional assay; remark: listed apart in the source
[41] = target: T4, human DLL4 on the cell surface; assay: competition FACS, competitor huNotch-1; remark: listed apart in the source
Method: as §4

[42] = target: T5, mouse DLL4 on the cell surface; assay: competition FACS, competitor huNotch-1; remark: listed apart in the source
Method: as §4

[43] = target: T1, human DLL4 extracellular domain; assay: competition ELISA, competitor huNotch-1; remark: listed apart in the source
Method: as §5

[44] = target: T2, mouse DLL4 extracellular domain; assay: competition ELISA, competitor huNotch-1; remark: listed apart in the source
Method: as §5

[45] = target: T2, mouse DLL4 extracellular domain; assay: Biacore SPR; remark: listed apart in the source
Method: as §1

[46] = target: T5, mouse DLL4 on the cell surface; assay: competition FACS, competitor huNotch-1; competition FACS, huNotch-1/DLL4 cells (IC50)
Method: as §4

T5 sequence (Q9JI71 27-686): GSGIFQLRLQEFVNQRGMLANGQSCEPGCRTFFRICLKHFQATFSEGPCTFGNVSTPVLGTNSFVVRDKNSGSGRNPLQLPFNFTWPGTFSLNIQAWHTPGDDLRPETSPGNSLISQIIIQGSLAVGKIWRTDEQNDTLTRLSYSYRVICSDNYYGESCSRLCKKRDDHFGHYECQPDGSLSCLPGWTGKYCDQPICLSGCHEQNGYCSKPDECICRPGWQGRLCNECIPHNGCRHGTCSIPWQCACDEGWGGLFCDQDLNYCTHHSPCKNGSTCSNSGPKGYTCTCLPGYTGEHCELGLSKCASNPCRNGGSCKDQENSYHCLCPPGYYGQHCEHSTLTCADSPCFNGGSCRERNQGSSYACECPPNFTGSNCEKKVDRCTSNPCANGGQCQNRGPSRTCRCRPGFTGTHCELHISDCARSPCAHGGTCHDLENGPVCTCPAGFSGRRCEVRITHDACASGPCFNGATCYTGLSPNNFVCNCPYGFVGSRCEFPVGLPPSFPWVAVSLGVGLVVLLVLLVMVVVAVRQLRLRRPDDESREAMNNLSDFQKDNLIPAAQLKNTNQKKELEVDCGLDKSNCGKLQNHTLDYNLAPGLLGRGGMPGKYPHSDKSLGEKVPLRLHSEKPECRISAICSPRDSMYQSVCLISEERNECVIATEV
T2 sequence (Q9JI71 27-532): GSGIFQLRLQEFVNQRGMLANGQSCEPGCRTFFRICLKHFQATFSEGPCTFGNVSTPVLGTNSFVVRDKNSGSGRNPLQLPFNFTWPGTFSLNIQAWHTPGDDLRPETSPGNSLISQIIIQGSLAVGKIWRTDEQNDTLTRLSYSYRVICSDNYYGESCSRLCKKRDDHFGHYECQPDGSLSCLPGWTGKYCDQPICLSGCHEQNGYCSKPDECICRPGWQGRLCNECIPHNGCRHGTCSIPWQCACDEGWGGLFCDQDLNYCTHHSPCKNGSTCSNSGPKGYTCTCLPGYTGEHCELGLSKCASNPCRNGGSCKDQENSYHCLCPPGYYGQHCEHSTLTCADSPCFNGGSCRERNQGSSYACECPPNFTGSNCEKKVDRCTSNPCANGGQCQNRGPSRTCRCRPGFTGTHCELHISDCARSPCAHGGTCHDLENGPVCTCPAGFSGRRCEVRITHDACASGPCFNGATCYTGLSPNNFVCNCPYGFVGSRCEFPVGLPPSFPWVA
T3 sequence (D3ZHH1 28-530): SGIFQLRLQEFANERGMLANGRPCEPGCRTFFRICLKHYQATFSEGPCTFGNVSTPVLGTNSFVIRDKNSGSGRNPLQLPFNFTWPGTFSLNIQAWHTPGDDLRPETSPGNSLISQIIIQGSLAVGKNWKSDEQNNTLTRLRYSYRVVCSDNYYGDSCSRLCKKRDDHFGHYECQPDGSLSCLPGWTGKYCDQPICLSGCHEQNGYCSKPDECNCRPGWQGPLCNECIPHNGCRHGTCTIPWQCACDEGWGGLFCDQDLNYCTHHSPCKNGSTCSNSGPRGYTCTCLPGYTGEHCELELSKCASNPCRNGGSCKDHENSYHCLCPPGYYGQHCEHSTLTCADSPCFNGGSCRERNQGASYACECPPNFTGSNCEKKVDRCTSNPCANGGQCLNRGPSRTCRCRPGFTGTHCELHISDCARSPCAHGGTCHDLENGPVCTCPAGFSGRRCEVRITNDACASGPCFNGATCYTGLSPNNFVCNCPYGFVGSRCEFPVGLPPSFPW
T7 sequence (Q9JI71 27-532): as the sequence (Q9JI71 27-532) above

Kd [1]: 6.68 nM
koff [1]: 0.00015 s⁻¹
kon [1]: 22000 M⁻¹ s⁻¹
binding result [2]: no binding (tested: 900 nM DLL4)
binding result [3]: no binding (tested: 900 nM DLL4)
EC50 [4]: 0.17 nM
EC50 [5]: 0.93 nM
sVEGFR1 Inhibition (IC50, nM) DLL4 ECD/EaHy cells, hu [6]: 1.5 nM
Inhibition of Notch activation via huDLL4 cells, coculture (IC50, nM) [7]: 7.3 nM
IC50 [8]: 4.4 nM
IC50 [9]: 2.6 nM
B1: A10 (antibody, IgG1, V domains shown)
VH: EVQLLESGGGLVKSGGSLRLSCAASGFTFRSHWMSWVRQAPGKGLEWVAIISYDGSNKYSADSVKGRFTISRDNSKNTLYLQLNSLRAEDTAVYYCAKAGGGNVGFDIWGQGTMVTVSS
VL: LPVLTQPPSVSVSPGQTASITCSADKLGTKYVSWYQQKPGQSPVLVIYQDAKRPSGIPERFSGSNSGNTATLTISGTQTMDEADYLCQSWDRSDVVFGGGTKVTVL
notes: also called anti-DLL4 PROfusion antibody A10

Kd [35]: 0.69 nM
koff [35]: 5.17e-05 s⁻¹
kon [35]: 74900 M⁻¹ s⁻¹
Kd [45]: 3.07 nM
koff [45]: 0.000206 s⁻¹
kon [45]: 67000 M⁻¹ s⁻¹
EC50 [36]: 0.17 nM
EC50 [37]: 0.17 nM
EC50 [38]: 2.79 nM
EC50 [39]: 0.54 nM
Inhibition of Notch activation via huDLL4 cells, coculture (IC50, nM) [40]: 4.4 nM
IC50 [41]: 4.9 nM
IC50 [42]: 0.44 nM
IC50 [43]: 1.8 nM
IC50 [44]: 1.3 nM
B5: E9.19 (antibody, V domains shown)
VH: EVQLQESGPGLVKPSETLSLTCTVSGGSISSSSYYWGWIRQPPGKGLEWIGDIYYTGSTYYNPSLKSRVTISVDTSKNQFSLKLSSVTAADTAVYYCARFDVSLGGGSDTWGQGTLVTVSS
VL: SYELTQPPSVSVSPGQTASITCSGQRLGDKYASWYQQKPGQSPVLVIYEDSKRPSGIPERFSGSNSGDTATLTISGTQPMDEADYYCQAWDRDTGVFGYGTKVTVL
notes: also called DLL4-E9-19 hIgG1/L

Kd [35]: 2.45 nM
koff [35]: 3.15e-05 s⁻¹
kon [35]: 12900 M⁻¹ s⁻¹
Kd [45]: 8.1 nM
koff [45]: 0.000148 s⁻¹
kon [45]: 18300 M⁻¹ s⁻¹
EC50 [38]: 1.7 nM
IC50 [41]: 12.6 nM
IC50 [46]: 1.1 nM
B6: E9.16 (antibody, V domains shown)
VH: B5 VH with F100E, S103I, G105R, T110Y
VL: B5 VL with Q25E, A32V, S51F
notes: also called DLL4-E9-16 hIgG1/L

Kd [35]: 0.91 nM
koff [35]: 3.51e-05 s⁻¹
kon [35]: 38800 M⁻¹ s⁻¹
Kd [45]: 6.08 nM
koff [45]: 0.000216 s⁻¹
kon [45]: 35500 M⁻¹ s⁻¹
EC50 [36]: 0.16 nM
EC50 [37]: 0.17 nM
EC50 [38]: 1.82 nM
EC50 [39]: 0.32 nM
Inhibition of Notch activation via huDLL4 cells, coculture (IC50, nM) [40]: 2.1 nM
IC50 [41]: 3.22 nM
IC50 [42]: 0.24 nM
IC50 [43]: 2 nM
IC50 [44]: 1.3 nM
B7: E9.71 (antibody, V domains shown)
VH: B5 VH with F100Q, D101A, V102L, S103A, L104M, T110K
VL: B5 VL
notes: also called DLL4-E9-71 hIgG1/L

Second part, the binder before the results:

B2: E9 (antibody, IgG1, V domains shown)
VH: B5 VH with F100E, S103I, G105R, T110Y
VL: B5 VL with K102R
notes: also called anti-DLL4 PROfusion antibody E9
Kd [1]: 3.36 nM
koff [1]: 6.6e-05 s⁻¹
kon [1]: 20000 M⁻¹ s⁻¹
Kd [2]: 16 nM
koff [2]: 0.00026 s⁻¹
kon [2]: 18000 M⁻¹ s⁻¹
Kd [3]: 15 nM
koff [3]: 0.00029 s⁻¹
kon [3]: 19000 M⁻¹ s⁻¹
EC50 [4]: 0.17 nM
EC50 [10]: 0.18 nM
EC50 [5]: 7.23 nM
EC50 [11]: 0.32 nM
sVEGFR1 Inhibition (IC50, nM) DLL4 ECD/EaHy cells, hu [6]: 1 nM
sVEGFR1 Inhibition (IC50, nM) DLL4 ECD/EaHy cells, mu [12]: 0.4 nM
Inhibition of Notch activation via huDLL4 cells, coculture (IC50, nM) [7]: 6.2 nM
IC50 [8]: 23.4 nM
IC50 [13]: 3.2 nM
IC50 [9]: 1.7 nM
IC50 [14]: 2.1 nM

B3: E9.1 (antibody, human IgG1, V domains shown)
VH: B5 VH with F100E, S103I, G105R, T110Y
VL: SYELTQPPSVSVSPGQTASITCSGQRLGDKYASWYQQKPGQSPVLVIYEDSKRPSGIPERFSGSNSGDTATLTISGTQPMDEADYYCQAWDRDTGVFGYGTRVTVLG
Kd [15]: 2.38 nM
Kd [16]: 12.8 nM
Kd [17]: 0.52 nM
Kd [18]: 1.1 nM
EC50 [19]: 0.29 nM
EC50 [20]: 0.34 nM
EC50 [21]: 0.03 nM
EC50 [22]: 0.04 nM
Kd [23]: 0.35 nM
Kd [24]: 3.62 nM
Kd [25]: 1.66 nM
Kd [26]: 1.6 nM
IC50 [27]: 4.55 nM
IC50 [28]: 1.02 nM
IC50 [29]: 1.62 nM
IC50 [30]: 1.06 nM
IC50 [31]: 2.5 nM
IC50 [32]: 2.5 nM
IC50 [33]: 2.2 nM
IC50 [34]: 5.85 nM

B4: E9.2B (antibody, V domains shown)
VH: B5 VH with S33N, Y54N, T56N, S58N, F100E, D101A, S103A, S108A, T110D
VL: B5 VL with Q25E, R26G, A32V, K52T, R92S, D93E, Y99S
Kd [35]: 0.02 nM
koff [35]: 7.9e-06 s⁻¹
kon [35]: 356000 M⁻¹ s⁻¹
EC50 [36]: 0.16 nM
EC50 [37]: 0.16 nM
EC50 [38]: 1.78 nM
EC50 [39]: 0.35 nM
Inhibition of Notch activation via huDLL4 cells, coculture (IC50, nM) [40]: 2.1 nM
IC50 [41]: 2.63 nM
IC50 [42]: 0.34 nM
IC50 [43]: 2.3 nM
IC50 [44]: 2.8 nM
